# In IntAct's records for PubMed 9425168:
# B1: Focal adhesion kinase 1 (Gallus gallus (Chicken)), Q00944 (parent)
# chain: MAAAYLDPNLNHTPSSSAKTHLGTGMERSPGAMERVLKVFHYFENSSEPTTWASIIRHGDATDVRGIIQKIVDCHKVKNVACYGLRLSHLQSEEVHWLHLDMGVSNVREKFELAHPPEEWKYELRIRYLPKGFLNQFTEDKPTLNFFYQQVKNDYMLEIADQVDQEIALKLGCLEIRRSYGEMRGNALEKKSNYEVLEKDVGLRRFFPKSLLDSVKAKTLRKLIQQTFRQFANLNREESILKFFEILSPVYRFDKECFKCALGSSWIISVELAIGPEEGISYLTDKGANPTHLADFNQVQTIQYSNSEDKDRKGMLQLKIAGAPEPLTVTAPSLTIAENMADLIDGYCRLVNGATQSFIIRPQKEGERALPSIPKLANNEKQGVRSHTVSVSETDDYAEIIDEEDTYTMPSTRDYEIQRERIELGRCIGEGQFGDVHQGIYMSPENPAMAVAIKTCKNCTSDSVREKFLQEALTMRQFDHPHIVKLIGVITENPVWIIMELCTLGELRSFLQVRKFSLDLASLILYAYQLSTALAYLESKRFVHRDIAARNVLVSATDCVKLGDFGLSRYMEDSTYYKASKGKLPIKWMAPESINFRRFTSASDVWMFGVCMWEILMHGVKPFQGVKNNDVIGRIENGERLPMPPNCPPTLYSLMTKCWAYDPSRRPRFTELKAQLSTILEEEKLQQEERMRMESRRQVTVSWDSGGSDEAPPKPSRPGYPSPRSSEGFYPSPQHMVQPNHYQVSGYSGSHGIPAMAGSIYPGQASLLDQTDSWNHRPQEVSAWQPNMEDSGTLDVRGMGQVLPTHLMEERLIRQQQEMEEDQRWLEKEERFLVMKPDVRLSRGSIEREDGGLQGPAGNQHIYQPVGKPDHAAPPKKPPRPGAPHLGSLASLNSPVDSYNEGVKIKPQEISPPPTANLDRSNDKVYENVTGLVKAVIEMSSKIQPAPPEEYVPMVKEVGLALRTLLATVDESLPVLPASTHREIEMAQKLLNSDLAELINKMKLAQQYVMTSLQQEYKKQMLTAAHALAVDAKNLLDVIDQARLKMISQSRPH
# Variants of: B1
# Conditions: with src_chick SRC
row,Variant,effect of a mutation on the interaction
1,Y397F,disrupting interaction

# Variants of: B1
# Conditions: with Src
row,Variant,effect of a mutation on the interaction
1,Y397F,decreasing interaction
